From patent publication US20150111246A1, “SITE-SPECIFIC ENZYMATIC MODIFICATION OF EXENDINS AND ANALOGS THEREOF” (priority 2012, published 2015)
Bridge positions count the residues as written; N and C are the ends. Peptide text beside a SMILES is read from it. * marks the point of attachment. NH(mPEG24) = COCCOCCOCCOCCOCCOCCOCCOCCOCCOCCOCCOCCOCCOCCOCCOCCOCCOCCOCCOCCOCCOCCOCCOCCN*

Experiments:
GLP-1 receptor [1] = molecular target: T1, GLP-1 receptor (Rattus norvegicus, UniProt P32301); assay: GLP-1 receptor binding displacement assay; conditions: text of Examples 6, 7, 12
T1 construct: endogenous in cells; host or cells: RINm5F cell membranes
T1 sequence (P32301 22-463): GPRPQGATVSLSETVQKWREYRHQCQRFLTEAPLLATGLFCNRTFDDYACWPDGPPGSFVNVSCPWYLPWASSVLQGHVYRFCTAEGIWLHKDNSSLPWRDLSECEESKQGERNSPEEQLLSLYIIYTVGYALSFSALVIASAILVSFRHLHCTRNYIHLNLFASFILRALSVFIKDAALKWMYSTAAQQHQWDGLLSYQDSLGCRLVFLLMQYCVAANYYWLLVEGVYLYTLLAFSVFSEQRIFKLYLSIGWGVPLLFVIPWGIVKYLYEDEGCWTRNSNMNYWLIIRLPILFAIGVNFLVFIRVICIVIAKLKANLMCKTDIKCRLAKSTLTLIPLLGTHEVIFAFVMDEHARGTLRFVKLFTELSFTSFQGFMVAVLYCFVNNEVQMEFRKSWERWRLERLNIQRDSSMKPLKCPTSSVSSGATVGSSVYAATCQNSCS
Method: GLP-1 receptor binding and functional assays: GLP-1 receptor binding activity and affinity may be measured in any number of known methods. […] Reaction mixtures are filtered through glass filter pads presoaked with 0.3% PEI solution and rinsed with ice-cold phosphate buffered saline. Bound counts are determined using a scintillation counter. Binding affinities can be calculated using GraphPad Prism® software (GraphPad Software, Inc., San Diego, Calif.).

GLP-1 receptor [2] = molecular target: GLP-1 receptor (UniProt P32301); assay: cell-based or functional assay
GLP-1 receptor [3] = molecular target: GLP-1 receptor (UniProt P32301); assay: radioligand displacement, RINm5F cell membranes, [125I]GLP-1 (or exendin) tracer
GLP-1 receptor [4] = molecular target: T2, GLP-1 receptor (UniProt P32301 22-463, limits assumed); assay: cell-based or functional assay
T2 sequence (looked up): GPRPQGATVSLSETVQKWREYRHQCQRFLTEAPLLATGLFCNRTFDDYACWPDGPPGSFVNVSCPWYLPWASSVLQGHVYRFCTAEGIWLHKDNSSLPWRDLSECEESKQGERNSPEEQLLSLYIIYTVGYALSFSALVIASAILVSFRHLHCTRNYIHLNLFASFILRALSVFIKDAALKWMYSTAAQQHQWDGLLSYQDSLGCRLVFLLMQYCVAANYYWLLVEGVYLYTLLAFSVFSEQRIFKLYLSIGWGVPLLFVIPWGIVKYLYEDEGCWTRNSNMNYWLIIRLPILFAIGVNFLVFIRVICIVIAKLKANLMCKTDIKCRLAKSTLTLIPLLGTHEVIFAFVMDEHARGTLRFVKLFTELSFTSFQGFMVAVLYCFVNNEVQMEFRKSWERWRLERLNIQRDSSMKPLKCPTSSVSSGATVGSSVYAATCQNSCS

GLP-1 receptor, P32301 = molecular target: T3, GLP-1 receptor, P32301; assay: GLP-1 binding assay (radioligand displacement), as the filing names it
T3 chain: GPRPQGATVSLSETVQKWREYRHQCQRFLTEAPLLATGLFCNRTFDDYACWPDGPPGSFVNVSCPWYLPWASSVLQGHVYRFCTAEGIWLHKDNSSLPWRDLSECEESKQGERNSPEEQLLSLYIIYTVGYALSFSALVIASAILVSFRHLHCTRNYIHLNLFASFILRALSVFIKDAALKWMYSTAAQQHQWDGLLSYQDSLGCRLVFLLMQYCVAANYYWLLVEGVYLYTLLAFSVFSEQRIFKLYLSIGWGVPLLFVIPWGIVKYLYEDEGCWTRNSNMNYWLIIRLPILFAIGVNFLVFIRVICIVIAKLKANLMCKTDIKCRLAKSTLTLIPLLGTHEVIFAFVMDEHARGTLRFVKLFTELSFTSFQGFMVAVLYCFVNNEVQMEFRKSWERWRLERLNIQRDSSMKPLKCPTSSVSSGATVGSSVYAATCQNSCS

Work on `CC[C@H](C)[C@H](NC(=O)[C@@H]1CCCN1C(=O)CNC(=O)[C@H](Cc1ccccc1)NC(=O)[C@H](CC(N)=O)NC(=O)[C@H](CC(N)=O)NC(=O)[C@H](CO)NC(=O)[C@H](CO)NC(=O)[C@H](Cc1c[nH]cn1)NC(=O)[C@@H](NC(=O)[C@H](CC(C)C)NC(=O)[C@H](Cc1ccccc1)NC(=O)[C@H](CC(N)=O)NC(=O)[C@H](C)NC(=O)[C@H](CC(C)C)NC(=O)[C@H](CCCNC(=N)N)NC(=O)[C@H](CCC(=O)NCCOCCOCCOCCOCCOCCOCCOCCOCCOCCOCCOCCOCCOCCOCCOCCOCCOCCOCCOCCOCCOCCOCCOCCOC)NC(=O)[C@@H](NC(=O)[C@H](C)NC(=O)[C@@H]1CSSC[C@H](NC(=O)[C@@H](N)CCCCN)C(=O)N[C@@H](CC(N)=O)C(=O)N[C@@H]([C@@H](C)O)C(=O)N[C@@H](C)C(=O)N[C@@H]([C@@H](C)O)C(=O)N1)[C@@H](C)O)C(C)C)C(=O)N[C@@H](CC(C)C)C(=O)N1CCC[C@H]1C(=O)N1CCC[C@H]1C(=O)N[C@H](C(=O)N[C@@H](CC(N)=O)C(=O)N[C@H](C(=O)NCC(=O)N[C@@H](CO)C(=O)N[C@@H](CC(N)=O)C(=O)N[C@H](C(=O)N[C@@H](Cc1ccc(O)cc1)C(N)=O)[C@@H](C)O)C(C)C)[C@@H](C)O` [Example 12] (H-KCNTATCATE(NH(mPEG24))RLANFLVHSSNNFGPILPPTNVGSNTY-NH2; disulfide 2-7; N-terminus and C-terminus assumed) yielded an IC50 (GLP-1 receptor [1]) of 80 nM.

Molecule Exendin-4 (peptide) has a GLP-1 Function ED50 (GLP-1 receptor [2]) of 0.003 nM and an IC50 (GLP-1 receptor [3]) of 0.333 nM.

B1: [des-^1H, ^2G(imidazoacetyl), ^13N, ^14L]-Exendin-4-^40Q biotin cadaverine amide adduct attached at ^40Q (MW 4564.46) (peptide)
peptide: GEGTFTSDLSKNLEEEAVRLFIEWLKNGGPSSGAPPPSQ
modifications: imidazoacetyl on Gly 2 in place of His 1; biotin cadaverine amide on the side chain of Gln 40
In the case of B1, the “EC50 in the GLP-1 functional assay” value (GLP-1 receptor [4]) is reported as 0.004 nM.

B2: Pramlintide pegylated with m-dPEG24 amine at the glutamine at position 10 (peptide)
peptide: KCNTATCATQRLANFLVHSSNNFGPILPPTNVGSNTY
modifications: not checked
With B2 the IC50 (GLP-1 receptor, P32301) was 80 nM.
